In patent US20200317768A1 (published 2020):
Changes are numbered by the printed parent chain.

T1: cynomolgus monkey FcγRIIa1 extracellular domain with C-terminal His-tag (cynomolgus monkey)
T1 construct: also called cyno FcgRIIa1; cynoFcγRIIa1
T1 chain: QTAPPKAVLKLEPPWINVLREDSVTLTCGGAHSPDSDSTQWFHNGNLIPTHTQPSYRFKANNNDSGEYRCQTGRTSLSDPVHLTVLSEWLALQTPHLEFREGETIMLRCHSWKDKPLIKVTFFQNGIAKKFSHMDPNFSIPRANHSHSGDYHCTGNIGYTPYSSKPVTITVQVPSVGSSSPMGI

T2: cynomolgus monkey FcγRIIa2 extracellular domain with C-terminal His-tag (cynomolgus monkey)
T2 construct: also called cyno FcgRIIa2; cynoFcγRIIa2
T2 chain: T1 chain with P95T, T121A, I127K, A128S, K130N, D135N, R142Q

T3: cynomolgus monkey FcγRIIa3 extracellular domain with C-terminal His-tag (cynomolgus monkey)
T3 construct: also called cyno FcgRIIa3; cynoFcγRIIa3
T3 chain: T1 chain with P95T, T121A, A128S, H133P, D135N

T4: cynomolgus monkey FcγRIIb extracellular domain with C-terminal His-tag (cynomolgus monkey)
T4 construct: also called cyno FcgRIIb; cynoFcγRIIb
T4 chain: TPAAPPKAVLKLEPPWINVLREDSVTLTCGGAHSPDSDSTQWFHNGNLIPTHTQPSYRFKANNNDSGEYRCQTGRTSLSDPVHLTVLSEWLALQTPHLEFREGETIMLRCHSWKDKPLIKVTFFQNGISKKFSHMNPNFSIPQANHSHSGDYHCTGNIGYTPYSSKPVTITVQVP

T5: cynomolgus monkey FcγRIIIaS extracellular domain with C-terminal His-tag (cynomolgus monkey, UniProt Q8SPW2 21-206 at identity 1.00))
T5 construct: also called cyno FcgRIIIaS; cynoFcγRIIIaS
T5 chain: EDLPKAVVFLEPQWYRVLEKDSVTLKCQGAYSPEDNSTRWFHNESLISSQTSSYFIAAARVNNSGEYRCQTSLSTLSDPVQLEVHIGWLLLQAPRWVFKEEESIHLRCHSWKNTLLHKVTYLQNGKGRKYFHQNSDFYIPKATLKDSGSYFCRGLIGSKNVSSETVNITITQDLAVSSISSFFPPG

T6: human FcγRIIaR extracellular domain with C-terminal His-tag (human, UniProt P12318 34-217)
T6 construct: also called human FcgRIIaR; FcγRIIa (type R)
T6 chain: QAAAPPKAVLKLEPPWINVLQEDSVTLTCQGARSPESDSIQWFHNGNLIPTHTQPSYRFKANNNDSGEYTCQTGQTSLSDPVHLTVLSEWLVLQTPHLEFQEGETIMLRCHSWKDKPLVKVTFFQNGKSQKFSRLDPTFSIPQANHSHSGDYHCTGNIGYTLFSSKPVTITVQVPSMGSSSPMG

T7: human FcγRIIb extracellular domain with C-terminal His-tag (human, UniProt P31994 43-217)
T7 construct: also called human FcgRIIb
T7 sequence: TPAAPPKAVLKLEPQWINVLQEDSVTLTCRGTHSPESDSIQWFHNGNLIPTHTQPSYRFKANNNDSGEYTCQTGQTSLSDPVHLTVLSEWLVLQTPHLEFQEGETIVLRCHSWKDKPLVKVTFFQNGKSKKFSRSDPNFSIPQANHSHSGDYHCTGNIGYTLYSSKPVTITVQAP

B1: M103205H795-MY527/M103202L889-SK1 (antibody, human IgG1, kappa)
heavy: QVTLKESGPVLVKPTETLTLTCTVSGIDLSHDDISWVRQAPGKGLEWVGIISYAGSTYYASWAKGRLTISKDTSKNQVVLTMTNMDPVDTATYYCARGVPAYSHGGDLWGQGTLVTVSSASTKGPSVFPLAPSSKSTSGGTAALGCLVKDYFPEPVTVSWNSGALTSGVHTFPAVLQSSGLYSLSSVVTVPSSSLGTQTYICNVNHKPSNTKVDKKVEPKSCDKTHTCPPCPTPELLTGPSVFLFPPKPKDTLMISRTPEVTCVVVDVSDEDPEVKFNWYVDGVEVHNAKTKPREELYNSTYRVVSVLTVLHQDWLNGKEYKCKVSNKALPKPIEKTISKAKGQPREPQVYTLPPSREEMTKNQVSLTCLVKGFYPSDIAVEWESNGQPENNYKTTPPVLDSDGSFFLYSKLTVDKSRWQQGNVFSCSVMHEALHNHYTQKSLSLSP
light: DIVMTQSPATLSLSPGERATLSCTSSQSVYHANWLSWFQQKPGQPPKLLIYWASTLAYGVPSRFSGSGSGTDFTLTISSLQPEDAATYYCAGGYGGGRYAFGQGTKVEIKRTVAAPSVFIFPPSDEQLKSGTASVVCLLNNFYPREAKVQWKVDNALQSGNSQESVTEQDSKDSTYSLSSTLTLSKADYEKHKVYACEVTHQGLSSPVTKSFNRGEC
notes: Substitutions introduced into M103205H795-SG1, expressed with M103202L889-SK1 as light chain; EU numbering
B2: M103205H795-MY528/M103202L889-SK1 (antibody, human IgG1, kappa)
heavy: B1 heavy with T233A, L236W, L297Q
light: B1 light
notes: as for B1
B3: M103205H795-MY529/M103202L889-SK1 (antibody, human IgG1, kappa)
heavy: B1 heavy with T233A, L236W
light: B1 light
notes: as for B1
B4: M103205H795-MY530/M103202L889-SK1 (antibody, human IgG1, kappa)
heavy: B1 heavy with T233A, L297Q, K328T
light: B1 light
notes: as for B1
B5: M103205H795-MY531/M103202L889-SK1 (antibody, human IgG1, kappa)
heavy: B1 heavy with T233A, L236W, L297Q, K328T
light: B1 light
notes: as for B1
B6: M103205H795-MY532/M103202L889-SK1 (antibody, human IgG1, kappa)
heavy: B1 heavy with T233A, L236W, S241V, L297Q
light: B1 light
notes: as for B1

Experiments:
[1] = target: T1, cynomolgus monkey FcγRIIa1 …; assay: SPR (BIACORE); KD of SG1 / KD of variant;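 note: relative to parent M103205H795-SG1 carrying the SG1 human heavy chain constant region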
[2] = target: T2, cynomolgus monkey FcγRIIa2 …; assay: SPR (BIACORE); KD of SG1 / KD of variant;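 note: relative to parent M103205H795-SG1 carrying the SG1 human heavy chain constant region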
[3] = target: T3, cynomolgus monkey FcγRIIa3 …; assay: SPR (BIACORE); KD of SG1 / KD of variant;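 note: relative to parent M103205H795-SG1 carrying the SG1 human heavy chain constant region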
[4] = target: T4, cynomolgus monkey FcγRIIb extracellular …; assay: SPR (BIACORE); KD of SG1 / KD of variant;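 note: relative to parent M103205H795-SG1 carrying the SG1 human heavy chain constant region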
[5] = target: T5, cynomolgus monkey FcγRIIIaS …; assay: SPR (BIACORE); KD of SG1 / KD of variant
[6] = target: T6, human FcγRIIaR extracellular domain …; assay: SPR (BIACORE); KD of SG1 / KD of variant
[7] = target: T7, human FcγRIIb extracellular domain with …; assay: SPR (BIACORE); KD of SG1 / KD of variant
[8] = target: T8, human FcγRIIIaV extracellular domain with C-terminal His-tag (human, UniProt P08637 17-208); assay: SPR (BIACORE); KD of SG1 / KD of variant
T8 construct: also called human FcgRIIIaV
T8 sequence (P08637 17-208 F176V): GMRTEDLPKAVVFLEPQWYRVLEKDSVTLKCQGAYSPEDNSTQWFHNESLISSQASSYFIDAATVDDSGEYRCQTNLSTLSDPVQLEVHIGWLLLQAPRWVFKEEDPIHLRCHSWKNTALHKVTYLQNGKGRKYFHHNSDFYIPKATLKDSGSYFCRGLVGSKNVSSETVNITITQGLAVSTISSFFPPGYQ

[9] = target: T3, cynomolgus monkey FcγRIIa3 …; assay: SPR (BIACORE), antibody captured, FcgR analyte

| Binder | KD fold (SG1 = 1) [1] | KD fold (SG1 = 1) [2] | KD fold (SG1 = 1) [3] | KD fold (SG1 = 1) [4] | KD fold (SG1 = 1) [5] | KD fold (SG1 = 1) [6] | KD fold (SG1 = 1) [7] | KD fold (SG1 = 1) [8] | Kd [9] |
| --- | --- | --- | --- | --- | --- | --- | --- | --- | --- |
| B1 | 2.9 fold | 3.5 fold | 5 fold | 5 fold | 0.24 fold | 3.8 fold | 3.5 fold | 0.18 fold | 3400 nM |
| B2 | 2.3 fold | 3.4 fold | 5.3 fold | 4.4 fold | 0.15 fold | 2 fold | 2.1 fold | 0.19 fold | 3200 nM |
| B3 | 3.2 fold | 3.6 fold | 5.3 fold | 6 fold | 0.16 fold | 2.1 fold | 3.3 fold | 0.2 fold | 3200 nM |
| B4 | 2.3 fold | 4.6 fold | 6.8 fold | 5.6 fold | 0.42 fold | 4.1 fold | 2.5 fold | 0.23 fold | 2500 nM |
| B5 | 2.9 fold | 3.5 fold | 7.7 fold | 6.7 fold | 0.36 fold | 2.7 fold | 3.2 fold | 0.25 fold | 2200 nM |
| B6 | 4.2 fold | 8.5 fold | 23 fold | 7.8 fold | 0.42 fold | 3.8 fold | 5.5 fold | 0.43 fold | 740 nM |
